Assay [1] addresses CC-Type2-(LaIdGe)4. The experiment in a line: AUC; sedimentation velocity, 150 uM peptide, 20 C, 50 krpm, PBS pH 7.4; self-association of the peptide.
Assay [2] has as its target CC-Type2-(LaIdGe)4. Briefly: AUC; sedimentation equilibrium with 15% v/v isopropanol, 70 uM peptide, PBS pH 7.4, 30-45 krpm, single ideal species fit.
In assay [3] the target is CC-Type2-(LaIdGe)4. Briefly: SEC; Superdex75 10/300 GL, 25% v/v IPA in PBS, samples loaded at 150 uM, monitored at 220 nm. Background: Size exclusion chromatography separates by hydrodynamic size, large species first.
Assay [4] deals with CC-Type2-(LaIdGe)4. The experiment in a line: AUC; sedimentation equilibrium, 70 uM peptide, 20 C, PBS pH 7.4, single species model; self-association of the peptide.
The target in assay [5] is CC-Type2-(LaIdGe)4. The experiment in a line: AUC; sedimentation velocity with DPH, absorbance of DPH at 350 nm; 200 uM peptide, 5 uM DPH, 5% v/v DMSO in PBS pH 7.4, 25 C.
For assay [6], the target named is CC-Type2-(LaIdGe)4. The experiment in a line: AUC; sedimentation velocity with 25% v/v isopropanol, 150 uM peptide, PBS pH 7.4.
For assay [7], the target named is CC-Type2-(LaIdGe)4-W19BrPhe. Briefly: crystal structure; vapour diffusion at 19 C; 0.05 M sodium HEPES, 5% w/v PEG 4000, 5% v/v 2-propanol, pH 7; SAD phasing on bromine.

For orientation: stoichiometry N means a count of units in the complex or per binding partner. With CC-Type2-(LaIdGe)4 (peptide), the stoichiometry N in the assay with CC-Type2-(LaIdGe)4 [1], with CC-Type2-(LaIdGe)4 [3] and with CC-Type2-(LaIdGe)4 [4] was 6 in each case. In addition, the stoichiometry N (x monomer mass) came out at 5.7 with CC-Type2-(LaIdGe)4 [2], 6.2 in the assay with CC-Type2-(LaIdGe)4 [5] and 5.5 in the assay with CC-Type2-(LaIdGe)4 [6].
In assay [7], CC-Type2-(LaIdGe)4-W19BrPhe (peptide) registered a stoichiometry N of 6.
